# Results: patent US20200330514A1 (TORQUE THERAPEUTICS, published 2020)
# T1: human CD45 receptor on the surface of human T cells (human, UniProt P08575 26-1306)
# T1 construct: whole, on cells; also called cellular CD45; leukocyte common antigen
# T1 sequence (looked up): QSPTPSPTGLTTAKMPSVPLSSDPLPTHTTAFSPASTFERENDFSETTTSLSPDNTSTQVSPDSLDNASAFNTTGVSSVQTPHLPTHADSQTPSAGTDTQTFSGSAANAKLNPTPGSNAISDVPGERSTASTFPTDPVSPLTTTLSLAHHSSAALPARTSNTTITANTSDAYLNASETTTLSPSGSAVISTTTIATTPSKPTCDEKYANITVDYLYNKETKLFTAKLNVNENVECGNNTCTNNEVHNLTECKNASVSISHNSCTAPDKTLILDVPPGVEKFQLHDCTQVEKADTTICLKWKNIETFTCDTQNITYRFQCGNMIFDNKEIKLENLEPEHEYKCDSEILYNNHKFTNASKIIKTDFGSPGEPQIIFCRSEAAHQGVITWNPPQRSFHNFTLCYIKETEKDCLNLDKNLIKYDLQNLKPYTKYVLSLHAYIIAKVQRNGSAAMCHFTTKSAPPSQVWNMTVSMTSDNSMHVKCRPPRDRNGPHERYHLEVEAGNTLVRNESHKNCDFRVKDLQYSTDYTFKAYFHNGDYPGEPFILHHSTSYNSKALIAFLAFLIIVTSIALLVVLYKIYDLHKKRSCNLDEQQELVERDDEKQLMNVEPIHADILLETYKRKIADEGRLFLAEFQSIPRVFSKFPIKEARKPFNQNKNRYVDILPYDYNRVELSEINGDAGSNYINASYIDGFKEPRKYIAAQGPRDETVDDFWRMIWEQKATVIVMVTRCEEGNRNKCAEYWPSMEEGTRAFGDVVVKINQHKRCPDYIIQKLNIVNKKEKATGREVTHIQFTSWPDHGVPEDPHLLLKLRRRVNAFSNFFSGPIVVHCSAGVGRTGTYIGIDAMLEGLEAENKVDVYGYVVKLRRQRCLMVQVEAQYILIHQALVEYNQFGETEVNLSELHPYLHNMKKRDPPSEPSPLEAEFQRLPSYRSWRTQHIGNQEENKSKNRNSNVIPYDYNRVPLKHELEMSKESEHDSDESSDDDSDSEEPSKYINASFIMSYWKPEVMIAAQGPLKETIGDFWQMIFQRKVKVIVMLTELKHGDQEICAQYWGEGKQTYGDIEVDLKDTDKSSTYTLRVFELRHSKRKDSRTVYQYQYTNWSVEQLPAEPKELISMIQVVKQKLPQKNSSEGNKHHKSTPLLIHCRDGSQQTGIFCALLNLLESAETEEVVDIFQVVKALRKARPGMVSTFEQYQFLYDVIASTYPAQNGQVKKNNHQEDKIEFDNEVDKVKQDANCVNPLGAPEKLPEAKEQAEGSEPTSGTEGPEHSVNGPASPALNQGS
# B1: ch4B2 chimeric IgG anti-CD45 antibody (antibody, V domains shown)
# VH: QVQLQQSGAELARPGASVKMSCKASGYTFTSYTMQWVKQRPGQGLEWIGYINPSSGYIKYNQKFKDKVTLTADKSSTTAYMQLSRLTSEDSAVYYCARRGSYFFDFWGQGTSVTVSS
# VL: DIVITQDELSNPVTSGESVSISCRSSKSLLYKDGKTYLNWFLQRPGQSPQLLIYLMSTRASGVSDRFSGSGSGTDFTLEISRVKAEDVGVYYCQQLVEYPFTFGGGTKLEVK
# notes: Chimeric IgG: mouse variable domains, human constant kappa domain and human IgG4 with S228P
# B2: chOKT8Fab (anti-human CD8 clone OKT8 as Fab fragment) (Fab, V domains shown)
# VH: QVQLQQSGAELVKPGASVKLSCTASGFNIKDTYIHFVRQRPEQGLEWIGRIDPANDNTLYASKFQGKATITADTSSNTAYMHLSSLTSGDTAVYYCGRGYGYYVFDHWGQGTTLTVSS
# VL: DVQINQSPSFLAASPGETITINCRTSRSISQYLAWYQEKPGKTNKLLIYSGSTLQSGIPSRFSGSGSGTDFTLTISGLEPEDFAMYYCQQHNENPLTFGAGTKLELKR
# B3: ch9.4 chimeric IgG anti-CD45 antibody (antibody, V domains shown)
# VH: QVQLQQLGAELARPGASVKMSCKASGYTFTSYSIQWVKQRPGQGLEWIGYINPSSGYIKYNQHFRDRATLTADRSSSTAYMQLSSLTSEDSAVYYCARGNSGSFDYWGQGTTLTVSS
# VL: DIVMTQAAPSVPVTPGESLSISCRSSKSLLHSSGITYLYWFLQRPGQSPQLLIYRMSNLASGVPDRFSGSGSGTAFTLRISRVEAEDVGVYYCMQHLEYPFTFGGGTKLEIK
# notes: as for B1
# B4: human CD8 on the surface of human CD8 T cells (receptor)
# chain 1: not shown
# chain 2: LQQTPAYIKVQTNKMVMLSCEAKISLSNMRIYWLRQRQAPSSDSHHEFLALWDSAKGTIHGEEVEQEKIAVFRDASRFILNLTSVKPEDSGIYFCMIVGSPELTFGKGTQLSVVDFLPTTAQPTKKSTLKKRVCRLPRPETQKGPLCSPITLGLLVAGVLVLLVSLGVAIHLCCRRRRARLRFMKQFYK
# notes: whole, on cells
# B5: chBC8 chimeric IgG anti-CD45 antibody (IgG4-S228P) (antibody, V domains shown)
# VH: QVQLVESGGGLVQPGGSLKLSCAASGFDFSRYWMSWVRQAPGKGLEWIGEINPTSSTINFTPSLKDKVFISRDNAKNTLYLQMSKVRSEDTALYYCARGNYYRYGDAMDYWGQGTSVTVSS
# VL: DIVLTQSPASLAVSLGQRATISCRASKSVSTSGYSYLHWYQQKPGQPPKLLIYLASNLESGVPARFSGSGSGTDFTLNIHPVEEEDAATYYCQHSRELPFTFGSGTKLEIKR
# notes: also called chBC8 IgG; chimeric BC8
# B6: h9.4Fab-scIL-12p70 (other)
# heavy: EVQLVQSGAEVKKPGASVKVSCKASGYTFTSYSIQWVRQAPGQRLEWIGYINPSSGYIKYNQHFRGRATLTADRSASTAYMELSSLRSEDTAVYYCARGNSGSFDYWGQGTLVTVSSASTKGPSVFPLAPSSKSTSGGTAALGCLVKDYFPEPVTVSWNSGALTSGVHTFPAVLQSSGLYSLSSVVTVPSSSLGTQTYICNVNHKPSNTKVDKKVEPKSC
# light: DIVMTQSPLSLPVTPGEPASISCRSSQSLLHSSGITYLYWFLQKPGQSPQLLIYRMSNLASGVPDRFSGSGSGTDFTLKISRVEAEDVGVYYCMQHLEYPFTFGQGTKLEIKRTVAAPSVFIFPPSDEQLKSGTASVVCLLNNFYPREAKVQWKVDNALQSGNSQESVTEQDSKDSTYSLSSTLTLSKADYEKHKVYACEVTHQGLSSPVTKSFNRGECGGGGSGGGGSGGGGSIWELKKDVYVVELDWYPDAPGEMVVLTCDTPEEDGITWTLDQSSEVLGSGKTLTIQVKEFGDAGQYTCHKGGEVLSHSLLLLHKKEDGIWSTDILKDQKEPKNKTFLRCEAKNYSGRFTCWWLTTISTDLTFSVKSSRGSSDPQGVTCGAATLSAERVRGDNKEYEYSVECQEDSACPAAEESLPIEVMVDAVHKLKYENYTSSFFIRDIIKPDPPKNLQLKPLKNSRQVEVSWEYPDTWSTPHSYFSLTFCVQVQGKSKREKKDRVFTDKTSATVICRKNASISVRAQDRYYSSSWSEWASVPCSGGGSGGGSGGGSGGGSRNLPVATPDPGMFPCLHHSQNLLRAVSNMLQKARQTLEFYPCTSEEIDHEDITKDKTSTVEACLPLELTKNESCLNSRETSFITNGSCLASRKTSFMMALCLSSIYEDLKMYQVEFKTMNAKLLMDPKRQIFLDQNMLAVIDELMQALNFNSETVPQKSSLEEPDFYKTKIKLCILLHAFRIRAVTIDRVMSYLNAS
# notes: Anti-human CD45 Fab fused to single-chain human IL-12p70; also called anti-CD45-IL12-TF; IL12-TF
# B7: hBC8(23) humanized BC8 anti-CD45 antibody (IgG form) (antibody, V domains shown)
# VH: EVQLVESGGGLVQPGGSLRLSCAASGFDFSRYWMSWVRQAPGKGLEWIGEINPTSSTINFADSVKGRFTISRDNAKNSLYLQMNSVRDEDTAVYYCARGNYYRYGDAMDYWGQGTLVTVSS
# VL: EIVLTQSPATLSLSLGERATISCRASKSVSTSGYSYLHWYQQKPGQAPKLLIYLASNRATGVPARFSGSGPGTDFTLTISSLEPEDFATYYCQHSRELPFTFGQGTKLEIK
# notes: Tested as an antibody detected with anti-human IgG-Fc; its constant regions are not spelled out for the humanized antibody
# Experiments:
# [1] = target: T1, human CD45 receptor on the surface of …; experiment: apparent KD (KD,app); flow cytometry titration of IgG on activated primary human CD8 T cells, 4-parameter fit
# Source text: For comparison with previous results we evaluated these antibodies alongside chBC8, hBC8(23), and a non-binding variant hBC8-null. The humanized BC8 antibody consists of variable domains containing CDR regions grafted from BC8, and the hBC8-null variant contains an SGGGS substitution in the heavy-chain CDR3, which ablates binding to CD45 (FIG. 10A). […] We use the term apparent dissociation constant (K_{D,app}) to distinguish from a true equilibrium dissociation constant: the bivalent nature of the IgG antibody introduces an avidity effect that complicates the calculation of a true equilibrium dissociation constant for these type of assays. Nevertheless, the K_{D,app} is a useful metric for scoring relative affinities of the antibodies to the cellular receptor in its native context.
# Cell binding assay. Primary human CD8 T-cells were activated with CD3/CD28 beads and 10 ng/mL IL-2 as described in Example 1. Following activation and an overnight rest in full RPMI media (see Example 1 methods) the T-cells were incubated with seven serial five-fold dilutions of antibodies spanning 500 nM to 6.4 μM, or with media only control at 4° C. for 1 hr. Cells were washed with MACS buffer (PBS, 2% FBS, 1 mM EDTA) three times, and antibody binding was detected using a PE-conjugated anti-human IgG-Fc antibody (BioLegend, cat. no. HP6017) for 20 min. at 4° C. Cells were washed two times with MACS buffer, and the resuspended in MACS buffer with live-dead stain (7-AAD). Antibody binding was quantified using the median fluorescence intensity (MFI) of the live cell population (via 7-AAD exclusion) within the PE signal. Curves were generated by plotting mean fluorescent units against antibody concentration, and apparent dissociation constants (K_{D,app}) were determined by non-linear regression using a four-parameter logistic equation using GraphPad Prism (GraphPad Software, Inc.).
# [2] = target: B4; experiment: flow cytometry titration on total CD3 human T cells (FIG. 17D)
# chOKT8-IL15/sushi Fab = target: T2, chOKT8-IL15/sushi Fab (human, UniProt Q13261 31-95); experiment: as above
# T2 construct: Anti-human CD8 Fab IFM; also called chOKT8Fab-IL15/sushi; chOKT8Fab-Il15/sushi
# T2 sequence (Q13261 31-95): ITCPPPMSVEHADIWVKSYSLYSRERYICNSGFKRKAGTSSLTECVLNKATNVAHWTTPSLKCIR
# [3] = target: T1, human CD45 receptor on the surface of …; experiment: pulse incubation of human CD3 T cells, anti-human IgG staining by flow cytometry (FIG. 23)
# Procedure: We evaluated the ability of IL12-TFs to support the loading of IL-12 onto T cells. Briefly, human total CD3 T cells were activated with CD3/CD28 Dynabeads for three days. Beads were removed and cells were incubated with IL-2 for 1 day prior to pulse incubation with h9.4Fab-scIL-12p70 diluted in full medium (RPMI 1640 with 10% FBS). Cells were incubated in biological duplicate with full media (Mock condition) or h9.4Fab-scIL-12p70 for 1 hr at 37° C. and then washed three times will full media (RPMI 1640 with 10% FBS) to remove unbound IL12-TF. Cells were then plated in full medium at a cell density of approximately 200,000 cells/mL and incubated at 37° C., 5% CO2. Surface tethered IL-12 was detected using flow cytometry by immunostaining with a polyclonal anti-human IgG antibody. Cells were counted using CountBright Absolute flow cytometry counting beads. In each case cells were analyzed on a FACSCelesta using Diva Software; data was analyzed using Cytobank.
Binder,Kd [1] [nM],also measured
B1,0.44,
B2,,binding result [2]: binds
B3,0.84,
B4,,binding result (chOKT8-IL15/sushi Fab): binds
B5,6.68,
B6,,binding result [3]: binds
B7,7.8,
